For assay [1], the target named is FcγRIIIA (soluble receptor used as analyte in the BIAcore runs) (human) (UniProt P08637). As to the kind of experiment: SPR (BIAcore 3000), IgG amine-coupled to CM5, soluble FcγRIIIA injected; Scatchard plot of Req; Run 1.
For assay [2] the target is unchanged. Briefly: SPR (BIAcore 3000), IgG amine-coupled to CM5, soluble FcγRIIIA injected; Scatchard plot of Req; Run 2. On the technique in general: Surface plasmon resonance follows binding to a sensor surface in real time, without labels.
For assay [3] the target is unchanged. As to the kind of experiment: SPR (BIAcore 3000), IgG amine-coupled to CM5, soluble FcγRIIIA injected; steady-state isotherm; Run 1.
Assay [4] shares this target. Briefly: SPR (BIAcore 3000), IgG amine-coupled to CM5, soluble FcγRIIIA injected; steady-state isotherm; Run 2.
Assay [5] deals with FcγRIIB-streptavidin fusion protein (tetramer) (human; Streptomyces avidinii) (UniProt P31994). As to the kind of experiment: ELISA: antibody at varied concentration captured on protein A/G, FcγRIIB-streptavidin, biotin-HRP, OD at 450 nm.
Sequence of FcγRIIB-streptavidin fusion protein (tetramer) (human; Streptomyces avidinii) (P31994 43-217 limits assumed): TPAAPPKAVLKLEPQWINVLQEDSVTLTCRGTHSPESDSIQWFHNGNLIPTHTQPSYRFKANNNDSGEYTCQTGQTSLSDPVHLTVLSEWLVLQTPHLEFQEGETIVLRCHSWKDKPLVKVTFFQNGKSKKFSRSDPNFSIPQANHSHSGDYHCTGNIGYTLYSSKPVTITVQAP

Sequence of FcγRIIIA (soluble receptor used as analyte in the BIAcore runs) (human) (P08637 17-208): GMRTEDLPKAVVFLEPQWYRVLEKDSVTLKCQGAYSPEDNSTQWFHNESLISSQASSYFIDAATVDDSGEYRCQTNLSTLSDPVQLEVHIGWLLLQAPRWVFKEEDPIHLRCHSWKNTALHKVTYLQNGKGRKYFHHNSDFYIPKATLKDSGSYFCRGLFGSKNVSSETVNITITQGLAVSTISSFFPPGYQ

As usually defined, the Kd is the free concentration of one partner at which half of the binding sites on the other are occupied at equilibrium, for simple one-to-one binding. Lower therefore signals higher affinity. By EC50 (read off the curve) is commonly meant the concentration needed to bring the measured effect to its halfway point. Low readings indicate higher potency in that assay, high ones lower potency in that assay. As to “Vitaxin® (wild type, full length IgG1) (antibody)”, the Kd in assay [1] amounted to 3260 nM; in assay [2], 7600 nM; in assay [3], 3470 nM; in assay [4], 8900 nM. The substance also came in with an EC50 (read off the curve) in assay [5] of 0.3 µg/mL.

For the substance “Vitaxin®-1M (Vitaxin® Fc variant I332E, IgG1) (antibody)”, the Kd came to 458 nM in assay [1], 1220 nM in assay [2], 458 nM in assay [3] and 1280 nM in assay [4]. In addition, the EC50 (read off the curve) in assay [5] was 0.3 µg/mL.

In turn, “Vitaxin®-3M (Vitaxin® Fc variant S239D/A330L/I332E, IgG1) (antibody)” had a Kd in assay [4] of 114 nM.

For the origin of these results see patent publication US20060040325A1.
